Results on three molecules are retold here after patent US20050032180A1, “Method for the production of (r)-and (s)-8-chloro-6-hydroxy-octanic acid alkyl esters by enzymatic reduction” (priority 2001, published 2005).

A short description of the experiment: analytical assay of enzyme activity with compounds of the formula I as substrate. In kind it is biochemical. The protocol:
The configuration of the resulting 8-chloro-6-hydroxyoctanoic acid alkyl esters is determined by the enzyme employed. Thus, reduction of 8-chloro-6-oxooctanoic acid alkyl esters using alcohol dehydrogenase from Thermoanaeorubium brokii results in enantiopure (R)-8-chloro-6-hydroxyoctanoic acid alkyl esters. In the case of reduction using Lactobacillus brevis alcohol dehydrogenase, there is enantioselective formation of (S)-8-chloro-6-hydroxyoctanoic acid alkyl esters (ee>65%).

B1: Y-ADH: yeast alcohol dehydrogenase, commercially available (protein, UniProt P00330 2-348, looked up)
Alcohol dehydrogenase 1: SIPETQKGVIFYESHGKLEYKDIPVPKPKANELLINVKYSGVCHTDLHAWHGDWPLPVKLPLVGGHEGAGVVVGMGENVKGWKIGDYAGIKWLNGSCMACEYCELGNESNCPHADLSGYTHDGSFQQYATADAVQAAHIPQGTDLAQVAPILCAGITVYKALKSANLMAGHWVAISGAAGGLGSLAVQYAKAMGYRVLGIDGGEGKEELFRSIGGEVFIDFTKEKDIVGAVLKATDGGAHGVINVSVSEAAIEASTRYVRANGTTVLVGMPAGAKCCSDVFNQVVKSISIVGSYVGNRADTREALDFFARGLVKSPIKVVGLSTLPEIYEKMEKGQIVGRYVVDTSK
For B1, the Activity (Standard 2-butanone, cofactor NAD(H), 100 mM TEA, pH 7.0) is 20%.

B2: LKADH: Lactobacillus kefir ADH, commercially available (protein, UniProt Q6WVP7 1-252, looked up)
NADP-dependent (R)-specific …: MTDRLKGKVAIVTGGTLGIGLAIADKFVEEGAKVVITGRHADVGEKAAKSIGGTDVIRFVQHDASDEAGWTKLFDTTEEAFGPVTTVVNNAGIAVSKSVEDTTTEEWRKLLSVNLDGVFFGTRLGIQRMKNKGLGASIINMSSIEGFVGDPTLGAYNASKGAVRIMSKSAALDCALKDYDVRVNTVHPGYIKTPLVDDLEGAEEMMSQRTKTPMGHIGEPNDIAWICVYLASDESKFATGAEFVVDGGYTAQ
Take B2: the Activity (Standard acetophenone, cofactor NADP(H), 50 mM Kpi, 0.1 mM MgCl2, pH 7.0, iso-propanol 200 mM) was determined as 10%.

B3: TBADH: Thermoanaerobium brokii ADH, commercially available (protein, UniProt P14941 1-352, looked up)
NADP-dependent isopropanol …: MKGFAMLSIGKVGWIEKEKPAPGPFDAIVRPLAVAPCTSDIHTVFEGAIGERHNMILGHEAVGEVVEVGSEVKDFKPGDRVVVPAITPDWRTSEVQRGYHQHSGGMLAGWKFSNVKDGVFGEFFHVNDADMNLAHLPKEIPLEAAVMIPDMMTTGFHGAELADIELGATVAVLGIGPVGLMAVAGAKLRGAGRIIAVGSRPVCVDAAKYYGATDIVNYKDGPIESQIMNLTEGKGVDAAIIAGGNADIMATAVKIVKPGGTIANVNYFGEGEVLPVPRLEWGCGMAHKTIKGGLCPGGRLRMERLIDLVFYKRVDPSKLVTHVFRGFDNIEKAFMLMKDKPKDLIKPVVILA
As for B3, where the note is “Standard 2-butanone, cofactor NADP(H), 50 mM Tris, 1 mM DTT, pH 7.8, HCO2Na, FDH, 37° C.”, the Activity is recorded as 6%.
